The text below walks through data of PMC4503813, “The molecular and structural bases for the association of complement C3 mutations with atypical hemolytic uremic syndrome” (Molecular Immunology, 2015).

Experiment [1] deals with C3b_(R161W) (human) (UniProt P01024).
The target of experiment [2] is C3b_(R592W) (human) (UniProt P01024).
Experiment [3] deals with C3b_(R161W) (human) (UniProt P01024). As to the kind of experiment: SPR; Biacore T100, CM5 chip; C3b surface brought to 1500 RU by thioester deposition (FB and FD with Mg2+ to form convertase, then mutant or wt C3 as substrate); sMCP 0.078-5 μM flowed 90 s, 300 s dissociation; 25 °C, 20 μl/min, HBS-EP; steady-state affinity analysis. In general terms: In SPR one partner is held on a chip, and binding of the other changes the refractive index at the surface.

Experiment [4] addresses C3b_(R592W) (human) (UniProt P01024). The experiment is described as above.
Experiment [5] has as its target wild-type C3b (human) (UniProt P01024). The experiment is described as above.
Experiment [6] has as its target C3b_(I1157T) (human, UniProt P01024 749-1663; P01024 749-1663, I1157T). The description is as above. To be noted: both partners purified.
The target of experiment [7] is C3b_(R161W) (human) (UniProt P01024). As to the kind of experiment: SPR; Biacore T100, CM5 chip; C3b immobilised (400 RU, amine coupling); FH 0.07-4.18 μM flowed 180 s, 300 s dissociation; 25 °C, 20 μl/min, HBS-EP; steady-state affinity analysis.
The target in experiment [8] is C3b_(R592W) (human) (UniProt P01024). Described as above.
The target of experiment [9] is wild-type C3b (human) (UniProt P01024). The experiment is described as above.
Experiment [10] concerns the target C3b_(I1157T) (human, UniProt P01024 749-1663; P01024 749-1663, I1157T, C3b state: beta and alpha' chains disulfide-linked. Thioester (Cys1010-Gln1013) opened: hydrolysed in trypsin-generated C3b, or covalently attached to the chip via thioester for MCP SPR. Plasma glycop). The description is as above. Particulars: both partners purified.

C3b_(I1157T) (human, UniProt P01024 749-1663; P01024 749-1663, I1157T), sequence (P01024 749-1663, stated change not applied, chain 1 of 2): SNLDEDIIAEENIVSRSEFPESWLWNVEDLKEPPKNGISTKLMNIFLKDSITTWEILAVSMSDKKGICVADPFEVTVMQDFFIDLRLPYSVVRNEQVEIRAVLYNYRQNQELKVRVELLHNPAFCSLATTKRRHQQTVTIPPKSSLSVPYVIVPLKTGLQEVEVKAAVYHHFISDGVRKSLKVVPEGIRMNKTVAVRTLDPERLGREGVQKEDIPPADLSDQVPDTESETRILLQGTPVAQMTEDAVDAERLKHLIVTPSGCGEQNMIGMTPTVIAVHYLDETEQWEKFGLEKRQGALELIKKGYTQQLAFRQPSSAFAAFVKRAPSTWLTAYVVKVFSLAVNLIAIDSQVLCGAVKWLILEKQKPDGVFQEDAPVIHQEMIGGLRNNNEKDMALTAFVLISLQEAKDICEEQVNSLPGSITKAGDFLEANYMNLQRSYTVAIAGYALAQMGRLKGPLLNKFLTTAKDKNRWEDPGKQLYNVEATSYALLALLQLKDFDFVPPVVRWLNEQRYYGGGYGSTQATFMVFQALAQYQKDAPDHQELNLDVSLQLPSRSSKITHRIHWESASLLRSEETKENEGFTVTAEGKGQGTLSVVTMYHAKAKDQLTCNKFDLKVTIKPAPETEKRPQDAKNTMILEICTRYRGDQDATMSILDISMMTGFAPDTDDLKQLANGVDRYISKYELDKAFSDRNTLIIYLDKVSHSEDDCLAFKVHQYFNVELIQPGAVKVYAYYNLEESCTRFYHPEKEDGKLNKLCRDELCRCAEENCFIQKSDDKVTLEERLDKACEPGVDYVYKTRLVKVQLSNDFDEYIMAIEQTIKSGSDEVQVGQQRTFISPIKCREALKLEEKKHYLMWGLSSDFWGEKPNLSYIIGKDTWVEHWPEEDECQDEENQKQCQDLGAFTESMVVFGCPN
C3b_(I1157T) (human, UniProt P01024 749-1663; P01024 749-1663, I1157T), sequence (P01024 749-1663 I1157T, chain 2 of 2): as the sequence (P01024 749-1663, stated change not applied, chain 1 of 2) above, with I409T counted along it
C3b_(I1157T) (human, UniProt P01024 749-1663; P01024 749-1663, I1157T, C3b state: beta and alpha' chains disulfide-linked. Thioester (Cys1010-Gln1013) opened: hydrolysed in trypsin-generated C3b, or covalently attached to the chip via thioester for MCP SPR. Plasma glycop), sequence (P01024 749-1663, stated change not applied, chain 1 of 2): as the sequence (P01024 749-1663, stated change not applied, chain 1 of 2) above
C3b_(I1157T) (human, UniProt P01024 749-1663; P01024 749-1663, I1157T, C3b state: beta and alpha' chains disulfide-linked. Thioester (Cys1010-Gln1013) opened: hydrolysed in trypsin-generated C3b, or covalently attached to the chip via thioester for MCP SPR. Plasma glycop), sequence (P01024 749-1663 I1157T, chain 2 of 2): as the sequence (P01024 749-1663, stated change not applied, chain 1 of 2) above, with I409T counted along it

As a reminder, the Kd is the constant that tells how readily two partners part at equilibrium. Regarding “soluble recombinant membrane cofactor protein (sMCP) (from UniProt P15529 35-286) (domain or fragment)”, the FI-mediated cleavage of C3b with sMCP as cofactor, purified proteins in solution, 0-10 min at 37 °C; percent of C3b cleaved after 10 min (wt almost completely cleaved) with C3b_(R161W) (human) [1] and with C3b_(R592W) (human) [2] was 70% each time. Also, the Kd with C3b_(R161W) (human) [3] stood at 930 nM; with C3b_(R592W) (human) [4] it was 710 nM; in the experiment with wild-type C3b (human) [5], 570 nM.

B1: soluble recombinant membrane cofactor protein (sMCP) (domain or fragment)
chain: CEEPPTFEAMELIGKPKPYYEIGERVDYKCKKGYFYIPPLATHTICDRNHTWLPVSDDACYRETCPYIRDPLNGQAVPANGTYEFGYQMHFICNEGYYLIGEEILYCELKGSVAIWSGKPPICEKVLCTPPPKIKNGKHTFSEVEVFEYLDAVTYSCDPAPGPDPFSLIGESTIYCGDNSVWSRAAPECKVVKCRFPVVENGKQISGFGKKFYYKATVMFECDKGFYLDGSDTIVCDSNSTWDPPVPKCLKV
notes: membrane cofactor protein (MCP, CD46), the first four short consensus repeats (SCR1-4); also called CD46; recombinant soluble MCP; source: recombinant; gift from Prof; Susan Lea, Oxford University
B1 came in with a Kd with C3b_(I1157T) [6] of 940 nM.

B2: factor H (natural protein, human, UniProt P08603 19-1231, looked up)
chain: EDCNELPPRRNTEILTGSWSDQTYPEGTQAIYKCRPGYRSLGNVIMVCRKGEWVALNPLRKCQKRPCGHPGDTPFGTFTLTGGNVFEYGVKAVYTCNEGYQLLGEINYRECDTDGWTNDIPICEVVKCLPVTAPENGKIVSSAMEPDREYHFGQAVRFVCNSGYKIEGDEEMHCSDDGFWSKEKPKCVEISCKSPDVINGSPISQKIIYKENERFQYKCNMGYEYSERGDAVCTESGWRPLPSCEEKSCDNPYIPNGDYSPLRIKHRTGDEITYQCRNGFYPATRGNTAKCTSTGWIPAPRCTLKPCDYPDIKHGGLYHENMRRPYFPVAVGKYYSYYCDEHFETPSGSYWDHIHCTQDGWSPAVPCLRKCYFPYLENGYNQNYGRKFVQGKSIDVACHPGYALPKAQTTVTCMENGWSPTPRCIRVKTCSKSSIDIENGFISESQYTYALKEKAKYQCKLGYVTADGETSGSITCGKDGWSAQPTCIKSCDIPVFMNARTKNDFTWFKLNDTLDYECHDGYESNTGSTTGSIVCGYNGWSDLPICYERECELPKIDVHLVPDRKKDQYKVGEVLKFSCKPGFTIVGPNSVQCYHFGLSPDLPICKEQVQSCGPPPELLNGNVKEKTKEEYGHSEVVEYYCNPRFLMKGPNKIQCVDGEWTTLPVCIVEESTCGDIPELEHGWAQLSSPPYYYGDSVEFNCSESFTMIGHRSITCIHGVWTQLPQCVAIDKLKKCKSSNLIILEEHLKNKKEFDHNSNIRYRCRGKEGWIHTVCINGRWDPEVNCSMAQIQLCPPPPQIPNSHNMTTTLNYRDGEKVSVLCQENYLIQEGEEITCKDGRWQSIPLCVEKIPCSQPPQIEHGTINSSRSSQESYAHGTKLSYTCEGGFRISEENETTCYMGKWSSPPQCEGLPCKSPPEISHGVVAHMSDSYQYGEEVTYKCFEGFGIDGPAIAKCLGEKWSHPPSCIKTDCLSLPSFENAIPMGEKKDVYKAGEQVTYTCATYYKMDGASNVTCINSRWTGRPTCRDTSCVNPPTVQNAYIVSRQMSKYPSGERVRYQCRSPYEMFGDEEVMCLNGNWTEPPQCKDSTGKCGPPPPIDNGDITSFPLSVYAPASSVEYQCQNLYQLEGNKRITCRNGQWSEPPKCLHPCVISREIMENYNIALRWTAKQKLYSRTGESVEFVCKRGYRLSSRSHTLRTTCWDGKLEYPTCAKR
notes: complement factor H, human, from plasma; also called FH; CFH
Consider B2, for which the Kd with C3b_(R161W) (human) [7] came to 2390 nM; with C3b_(R592W) (human) [8], 2450 nM; with wild-type C3b (human) [9], 960 nM; with C3b_(I1157T) [10] it was 1420 nM.
